A short description of the data set: protein stability index of a GFP-peptide fusion (yeast GPS) (PSI 1-4); higher = more stable; sorted into four equal gates, so the index is relative within each strain. In short, it runs like this: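 For each peptide, the protein stability index sums the read frequency in every gate after multiplying it by the gate number. Read frequencies came from plasmids that were PCR-amplified from each gate and Illumina-sequenced, with reads assigned to strains by barcodes. The gates were four equal bins of GFP/Cherry fluorescence ratio applied to mid-log yeast in leucine-free medium carrying a pooled library of tiled 17-residue yeast protein peptides fused downstream of GFP on a Cherry-expressing plasmid.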

± gives the uncertainty stated by the source.

As to RLRALQLYFQKNGAQDL [RRI2], the protein stability index runs as follows: (doa10∆) 1.7 ± 0.06; (pdr5∆) 1.95 ± 0.076; (san1∆) 1.95 ± 0.087; (ubr1∆) 2.44 ± 0.044.
Regarding LKHTDYWYEQDSAKEWP [RPB3], the protein stability index runs as follows: (doa10∆) 3.18 ± 0.15; (pdr5∆) 3.31 ± 0.13; (san1∆) 2.36 ± 0.21.
As to EQERKELEKYNELERNR [SMC3], the protein stability index by setting is: (doa10∆) 3.14 ± 0.14; (pdr5∆) 3.05 ± 0.18; (san1∆) 3.2 ± 0.11; (ubr1∆) 3.24 ± 0.091.
On to QYDFKAVLEENDENDDE [RPN14], for which the protein stability index is 3.04 ± 0.11 (doa10∆), 3.24 ± 0.075 (pdr5∆), 3.05 ± 0.076 (san1∆) and 2.89 ± 0.055 (ubr1∆).
For the sequence TRYMFQRDFRKHGAVHM [RPL21B], the protein stability index runs as follows: (doa10∆) 2.22 ± 0.099; (pdr5∆) 2.14 ± 0.06; (san1∆) 1.79 ± 0.12; (ubr1∆) 1.99 ± 0.077.
On to TVDGRLYQLFKTCIQGI [YJL039C/NUP192], for which the protein stability index was found to be 2.86 ± 0.16 (doa10∆), 2.98 ± 0.23 (pdr5∆) and 3.03 ± 0.11 (san1∆).
On to EDHMLKKIENTMLENIT [RPO21], for which the protein stability index by setting is: (doa10∆) 2.73 ± 0.1; (pdr5∆) 2.78 ± 0.086; (san1∆) 2.92 ± 0.077; (ubr1∆) 2.85 ± 0.083.
As for LITQLDGFDPRGNIKVM [RPT1], the protein stability index came out at 3.31 ± 0.22 (pdr5∆), 3.15 ± 0.09 (san1∆) and 3.32 ± 0.21 (ubr1∆).
As for LIEYMENDAKKSKGDVD [NUT1], the protein stability index was 3.05 ± 0.11 (doa10∆), 3.1 ± 0.079 (pdr5∆), 3.1 ± 0.08 (san1∆) and 3.03 ± 0.058 (ubr1∆).
Take VGVSHTNEEVRNMAEEF [CYT1]: the protein stability index is, setting by setting: (doa10∆) 2.85 ± 0.13; (pdr5∆) 2.35 ± 0.07; (san1∆) 2.01 ± 0.13; (ubr1∆) 2.22 ± 0.043.
As to SQTTTNDSKEESTTEAT [YLR335W/NUP2], the protein stability index runs as follows: (doa10∆) 3.02 ± 0.19; (pdr5∆) 2.83 ± 0.21; (san1∆) 2.97 ± 0.21; (ubr1∆) 3.27 ± 0.079.
The corresponding values for QVKVKGQLGEMAKCLDN [YCS4] are 3.25 ± 0.11, 3.17 ± 0.13, 3.19 ± 0.066 and 2.73 ± 0.076.
Regarding APIPIREDIDDPLAKVN [BRR2], the protein stability index runs as follows: (doa10∆) 2.9 ± 0.075; (pdr5∆) 2.66 ± 0.07; (san1∆) 2.55 ± 0.09; (ubr1∆) 2.22 ± 0.059.
In the case of IYLSQNELTDAIALAVR [RPN1], the protein stability index came out at 2.58 ± 0.045 (doa10∆), 2.67 ± 0.052 (pdr5∆), 2.88 ± 0.039 (san1∆) and 2.59 ± 0.032 (ubr1∆).
In the case of KEDAKATMENIQKGKFT [SRP54], the protein stability index is, setting by setting: (doa10∆) 3.07 ± 0.055; (pdr5∆) 3.29 ± 0.057; (san1∆) 3.09 ± 0.062; (ubr1∆) 3.08 ± 0.051.
For the sequence MAESTTLETIEIHPITF [RRP43], the protein stability index is, setting by setting: (doa10∆) 3.04 ± 0.073; (pdr5∆) 2.58 ± 0.047; (san1∆) 3.06 ± 0.044; (ubr1∆) 2.68 ± 0.04.
Regarding ILVGGTLKDYQIKGLQW [SNF2], the protein stability index turned out to be 2.99 ± 0.076 (doa10∆), 2.83 ± 0.077 (pdr5∆), 3.01 ± 0.056 (san1∆) and 3.16 ± 0.047 (ubr1∆).
Turning to TQEQFVKRRRDMLEHIN [SRB4], the protein stability index is, setting by setting: (pdr5∆) 2.06 ± 0.27; (ubr1∆) 1.26 ± 0.089.
For ESSDFGAIILTKMDGHA [SRP54], the protein stability index worked out at 2.42 ± 0.1 (doa10∆), 2.74 ± 0.094 (pdr5∆), 2.91 ± 0.11 (san1∆) and 2.8 ± 0.077 (ubr1∆).
On to DSMLFVFGFRANKMRQD [SMC4], for which the protein stability index stood at 2.27 ± 0.072 (doa10∆), 2.24 ± 0.08 (pdr5∆), 2.08 ± 0.12 (san1∆) and 2.7 ± 0.057 (ubr1∆).
With LNEFFTRELAEEGYSGV [RPS3], the protein stability index is, setting by setting: (doa10∆) 2.5 ± 0.22; (pdr5∆) 1.82 ± 0.12; (san1∆) 1.44 ± 0.15; (ubr1∆) 1.68 ± 0.11.
In the case of NKRLDVIDGKLPFMQNA [YDL088C/ASM4], the protein stability index is 2.84 ± 0.053 (doa10∆), 2.79 ± 0.053 (pdr5∆), 2.44 ± 0.052 (san1∆) and 2.19 ± 0.044 (ubr1∆).
On to NSEKFVFLLTTRAGGLG [ISW2], for which the protein stability index by setting is: (doa10∆) 1.67 ± 0.26; (pdr5∆) 1.4 ± 0.13; (san1∆) 1.11 ± 0.11; (ubr1∆) 1.51 ± 0.12.
On to QSQPIANQSATSTPPPP [SNF5], for which the protein stability index stood at 2.82 ± 0.044 (doa10∆), 2.66 ± 0.037 (pdr5∆), 2.61 ± 0.038 (san1∆) and 2.63 ± 0.034 (ubr1∆).
The corresponding values for QGSVRRLTVSARDAPTK [QCR2] are 2.93 ± 0.12, 3.16 ± 0.076, 2.92 ± 0.086 and 3.14 ± 0.061.
As to DPLYDITKVPALEFLNT [REC8], the protein stability index turned out to be 2.32 ± 0.069 (doa10∆), 2.72 ± 0.093 (pdr5∆), 2.61 ± 0.11 (san1∆) and 2.62 ± 0.083 (ubr1∆).
For the sequence DVTALLEQGFKVVSAKE [YCS4], the protein stability index turned out to be 2.48 ± 0.12 (doa10∆), 1.68 ± 0.077 (pdr5∆), 2.9 ± 0.098 (san1∆) and 3.37 ± 0.16 (ubr1∆).
For KKTATEPKQKANAVQNN [SRP21], the protein stability index came out at 3.06 ± 0.086 (doa10∆), 3.19 ± 0.082 (pdr5∆) and 3.24 ± 0.12 (ubr1∆).
For the sequence LYGVTICYNKKTEYVLN [REC8], the protein stability index amounted to 1.3 ± 0.058 (doa10∆), 1.3 ± 0.14 (pdr5∆), 1.14 ± 0.13 (san1∆) and 1.34 ± 0.062 (ubr1∆).
Turning to LLMSCPRLSHLSLTAVP [GRR1], the protein stability index is, setting by setting: (doa10∆) 1.9 ± 0.051; (pdr5∆) 1.57 ± 0.054; (san1∆) 1.63 ± 0.12; (ubr1∆) 2.19 ± 0.059.
In the same order, the values of MLDKLMVTSIRSTPNYI [MED6] are 2.4 ± 0.064, 2.52 ± 0.061, 2.43 ± 0.098 and 2.66 ± 0.05.
As to IMFNHARIIRSELLARD [RGR1], the protein stability index (doa10∆) is 1.58 ± 0.11, the protein stability index (pdr5∆) was 2.17 ± 0.14, the protein stability index (san1∆) was found to be 2.62 ± 0.14 and the protein stability index (ubr1∆) turned out to be 2.55 ± 0.086.
As to ELIVSEEIPINSSEQES [SIR3], the protein stability index was 2.28 ± 0.054 (doa10∆), 2.24 ± 0.051 (pdr5∆), 2.82 ± 0.053 (san1∆) and 2.18 ± 0.037 (ubr1∆).
The corresponding values for IDYHKTAKETKMLMNLH [RPN11] are 2.5 ± 0.061, 2.45 ± 0.06, 2.84 ± 0.057 and 2.58 ± 0.055.
Turning to NVISSKDWELEARFWHL [YDL116W/NUP84], the protein stability index worked out at 3.46 ± 0.096 (doa10∆), 3.32 ± 0.062 (pdr5∆), 3.43 ± 0.066 (san1∆) and 3.25 ± 0.068 (ubr1∆).
The corresponding values for VINIAKAHPNFPIALQW [FAS1] are 2.82 ± 0.1, 2.88 ± 0.086, 2.25 ± 0.091 and 2.23 ± 0.076.
In the same order, the values of IDMESDVEDDDKETQLK [POP7] are 1.67 ± 0.054, 1.92 ± 0.048, 1.62 ± 0.088 and 1.98 ± 0.031.
On to GAKNIEITVVKPDSDIV [PRE6], for which the protein stability index (doa10∆) was determined as 2.54 ± 0.047, the protein stability index (pdr5∆) came out at 2.46 ± 0.041, the protein stability index (san1∆) was 2.57 ± 0.052 and the protein stability index (ubr1∆) was determined as 2.67 ± 0.059.

The values above are taken from the supplement of paper PMC9732359.
